# Data as given in US20170202931.
# Tests used:
# Assay in all cases: cell_activity
# [1] = system: ZFN SBS 48641 (mouse albumin intron 1) (synthetic); settings: as pair with 31523; mouse liver in vivo, males 4 months (females 45.69; 1 month 46.67 male, 34.05 female); deep sequencing
# [2] = system: ZFN SBS 31523 (mouse albumin intron 1) (synthetic); settings: as pair with 48641; mouse liver in vivo, males 4 months (females 45.69; 1 month 46.67 male, 34.05 female); deep sequencing
# [3] = system: ZFN pair SBS 47171 / SBS 47931 (human albumin) (synthetic); settings: HepG2 cells with IDS donor, 3 days (62.27 with IDUA donor); MiSeq
substance,measurement,setting,value
CTGAAGGTGGCAATGGTTCCTCTCTGCT (double strand) [48641 target site],activity,[1],55.6 % indels
TTTCCTGTAACGATCGGGAACTGGCATC (double strand) [31523 target site],activity,[2],55.6 % indels
human albumin locus ZFN site,activity,[3],59.3 % indels
